Results: patent US20210253724A1 (Hoffmann-La Roche, published 2021)

Key:
[1] = molecular target: T1, hu4-1BB-SNAP Tb-labeled expressed on transfected Hek cells (human, UniProt Q07011 24-255, Tb (terbium) label on the SNAP tag); assay: TR-FRET (TagLite) competition against d2-labeled 20H4.9 IgG1 (0.6 nM), after 4 h
T1 construct: SNAP-tag fusion of human 4-1BB; also called Tb hu4-1BB-SNAP

[2] = molecular target: T2, human FAP on NIH/3T3-huFAP clone 19 cells (human, UniProt Q12884 1-760); assay: flow cytometry on NIH/3T3-huFAP clone 19 cells
T2 construct: NIH/3T3 cells transfected with a plasmid encoding human FAP
Procedure: (§1) Plates were incubated for 30 minutes at 4° C. and washed once with 200 μL 4° C. cold DPBS buffer. […] Cells were washed twice with 200 μL 4° C. DPBS buffer and then resuspended in 50 μL/well DPBS containing 1% Formaldehyde for fixation. The same or the next day cells were resuspended in 100 μL FACS-buffer and acquired using MACSQuant Analyzer 10 (Miltenyi Biotec).

[3] = molecular target: T3, human 4-1BB (CD137) on Jurkat-hu4-1BB-NFκB-luc2 reporter cells (human, UniProt Q07011 24-255); assay: cell-based or functional assay; parameters: AUC of NFκB-luciferase activation curve, no FAP+ cells / AUC of NFκB-luciferase activation curve, with WM-266-4 cells: unit not given beside the values
[4] = molecular target: T3, human 4-1BB (CD137) on …; assay: cell-based or functional assay
[5] = molecular target: T3, human 4-1BB (CD137) on …; assay: flow cytometry on Jurkat-hu4-1BB-NFκB-luc2 cells
Procedure: Plates were incubated for 30 minutes at 4° C. and washed once with 200 μL 4° C. cold DPBS buffer. […] Cells were washed twice with 200 μL 4° C. DPBS buffer and then resuspended in 50 μL/well DPBS containing 1% Formaldehyde for fixation. The same or the next day cells were resuspended in 100 μL FACS-buffer and acquired using MACSQuant Analyzer X (Miltenyi Biotec).

[6] = molecular target: T2, human FAP on NIH/3T3-huFAP clone 19 …; assay: flow cytometry on NIH/3T3-huFAP clone 19 cells; remark: listed apart in the source
Procedure: as §1

[7] = molecular target: T3, human 4-1BB (CD137) on …; assay: cell-based or functional assay; remark: listed apart in the source
[8] = molecular target: T3, human 4-1BB (CD137) on …; assay: cell-based or functional assay; parameters: AUC of NFκB-luciferase activation curve, no CEA+ cells / AUC of NFκB-luciferase activation curve, with CHO-k1-cynoCEACAM5 clone 8: unit not given beside the values
[9] = molecular target: T4, cynomolgus monkey CEACAM5 on CHO-k1-cynoCEACAM5 clone 8 cells (cynomolgus monkey); assay: flow cytometry on CHO-k1-cynoCEACAM5 clone 8; parameters: unit not given beside the values
T4 construct: whole, on cells

[10] = molecular target: T3, human 4-1BB (CD137) on …; assay: cell-based or functional assay; remark: listed apart in the source

Binder	IC50 [1] [pM]	AUC [2]	AUC of NFκB-luciferase activation curve, no FAP+ cells [3]	AUC of NFκB-luciferase activation curve, with NIH/3T3-huFAP clone 19 cells [3]	AUC of NFκB-luciferase activation curve, with WM-266-4 cells [3]	EC50 of NFκB-luciferase activation curve, with NIH/3T3-huFAP clone 19 cells [4] [pM]	EC50 of NFκB-luciferase activation curve, with WM-266-4 cells [4] [pM]	EC50 [6] [pM]	EC50 of NFκB-luciferase activation curve, no CEA+ cells [7] [pM]	EC50 of NFκB-luciferase activation curve, with CHO-k1-cynoCEACAM5 clone 8 [7] [pM]	EC50 of NFκB-luciferase activation curve, with CHO-k1-humanCEACAM5 clone 11 [7] [pM]	EC50 of NFκB-luciferase activation curve, with CHO-k1-humanCEACAM5 clone 12 [7] [pM]	AUC of NFκB-luciferase activation curve, no CEA+ cells [8]	AUC of NFκB-luciferase activation curve, with CHO-k1-cynoCEACAM5 clone 8 [8]	AUC of NFκB-luciferase activation curve, with CHO-k1-humanCEACAM5 clone 11 [8]	AUC of NFκB-luciferase activation curve, with CHO-k1-humanCEACAM5 clone 12 [8]	AUC [9]	further results
2+1 H2H 4-1BB (20H4.9)/FAP (4B9) P329GLALA IgG1 (bispecific antibody, Bivalent for 4-1BB, monovalent for FAP (cross-Fab fused head to head); also called 4-1BB (20H.9)×FAP 2+1 H2H; anti-4-1BB (20H4.9)×anti-FAP (4B9) 2+1 H2H huIgG1 P329GLALA) heavy 1: QVQLQQWGAGLLKPSETLSLTCAVYGGSFSGYYWSWIRQSPEKGLEWIGEINHGGYVTYNPSLESRVTISVDTSKNQFSLKLSSVTAADTAVYYCARDYGPGNYDWYFDLWGRGTLVTVSSASTKGPSVFPLAPSSKSTSGGTAALGCLVEDYFPEPVTVSWNSGALTSGVHTFPAVLQSSGLYSLSSVVTVPSSSLGTQTYICNVNHKPSNTKVDEKVEPKSCDKTHTCPPCPAPEAAGGPSVFLFPPKPKDTLMISRTPEVTCVVVDVSHEDPEVKFNWYVDGVEVHNAKTKPREEQYNSTYRVVSVLTVLHQDWLNGKEYKCKVSNKALGAPIEKTISKAKGQPREPQVCTLPPSRDELTKNQVSLSCAVKGFYPSDIAVEWESNGQPENNYKTTPPVLDSDGSFFLVSKLTVDKSRWQQGNVFSCSVMHEALHNHYTQKSLSLSP heavy 2: not shown light 1: not shown light 2: EVQLLESGGGLVQPGGSLRLSCAASGFTFSSYAMSWVRQAPGKGLEWVSAIIGSGASTYYADSVKGRFTISRDNSKNTLYLQMNSLRAEDTAVYYCAKGWFGGFNYWGQGTLVTVSSASVAAPSVFIFPPSDEQLKSGTASVVCLLNNFYPREAKVQWKVDNALQSGNSQESVTEQDSKDSTYSLSSTLTLSKADYEKHKVYACEVTHQGLSSPVTKSFNRGEC	1900	40200	715	109000	49400	20	60	1810										EC50 [5]: 62 pM
2+1 H2H 4-1BB (20H4.9)/CEA (MFE23) huIgG1 P329GLALA (bispecific antibody, also called 2+1 H2H anti-4-1BB (20H4.9)×anti-CEA (MFE23) huIgG1 P329GLALA) heavy 1: QVQLQQWGAGLLKPSETLSLTCAVYGGSFSGYYWSWIRQSPEKGLEWIGEINHGGYVTYNPSLESRVTISVDTSKNQFSLKLSSVTAADTAVYYCARDYGPGNYDWYFDLWGRGTLVTVSSASTKGPSVFPLAPSSKSTSGGTAALGCLVEDYFPEPVTVSWNSGALTSGVHTFPAVLQSSGLYSLSSVVTVPSSSLGTQTYICNVNHKPSNTKVDEKVEPKSCDKTHTCPPCPAPEAAGGPSVFLFPPKPKDTLMISRTPEVTCVVVDVSHEDPEVKFNWYVDGVEVHNAKTKPREEQYNSTYRVVSVLTVLHQDWLNGKEYKCKVSNKALGAPIEKTISKAKGQPREPQVCTLPPSRDELTKNQVSLSCAVKGFYPSDIAVEWESNGQPENNYKTTPPVLDSDGSFFLVSKLTVDKSRWQQGNVFSCSVMHEALHNHYTQKSLSLSP heavy 2: not shown light 1: not shown light 2: QVKLQQSGAELVRSGTSVKLSCTASGFNIKDSYMHWLRQGPEQGLEWIGWIDPENGDTEYAPKFQGKATFTTDTSSNTAYLQLSSLTSEDTAVYYCNEGTPTGPYYFDYWGQGTTVTVSSASVAAPSVFIFPPSDEQLKSGTASVVCLLNNFYPREAKVQWKVDNALQSGNSQESVTEQDSKDSTYSLSSTLTLSKADYEKHKVYACEVTHQGLSSPVTKSFNRGEC									100	140	20	20	774	802	76200	72300	169	
2+1 H2H 4-1BB (20H4.9)/PD-L1 human IgG1 PGLALA (bispecific antibody) heavy 1: QVQLQQWGAGLLKPSETLSLTCAVYGGSFSGYYWSWIRQSPEKGLEWIGEINHGGYVTYNPSLESRVTISVDTSKNQFSLKLSSVTAADTAVYYCARDYGPGNYDWYFDLWGRGTLVTVSSASTKGPSVFPLAPSSKSTSGGTAALGCLVEDYFPEPVTVSWNSGALTSGVHTFPAVLQSSGLYSLSSVVTVPSSSLGTQTYICNVNHKPSNTKVDEKVEPKSCDKTHTCPPCPAPEAAGGPSVFLFPPKPKDTLMISRTPEVTCVVVDVSHEDPEVKFNWYVDGVEVHNAKTKPREEQYNSTYRVVSVLTVLHQDWLNGKEYKCKVSNKALGAPIEKTISKAKGQPREPQVCTLPPSRDELTKNQVSLSCAVKGFYPSDIAVEWESNGQPENNYKTTPPVLDSDGSFFLVSKLTVDKSRWQQGNVFSCSVMHEALHNHYTQKSLSLSP heavy 2: not shown light 1: not shown light 2: not shown																		EC50 of NFκB-luciferase activation curve, with MKN45-huPD-L1 cells [10]: 40 pM
2+1 H2H 4-1BB (20H4.9)/CEA (A5H1EL1D) huIgG1 P329GLALA (bispecific antibody, also called 2+1 H2H anti-4-1BB (20H4.9)×anti-CEA (A5H1EL1D) huIgG1 P329GLALA) heavy 1: QVQLQQWGAGLLKPSETLSLTCAVYGGSFSGYYWSWIRQSPEKGLEWIGEINHGGYVTYNPSLESRVTISVDTSKNQFSLKLSSVTAADTAVYYCARDYGPGNYDWYFDLWGRGTLVTVSSASTKGPSVFPLAPSSKSTSGGTAALGCLVEDYFPEPVTVSWNSGALTSGVHTFPAVLQSSGLYSLSSVVTVPSSSLGTQTYICNVNHKPSNTKVDEKVEPKSCDKTHTCPPCPAPEAAGGPSVFLFPPKPKDTLMISRTPEVTCVVVDVSHEDPEVKFNWYVDGVEVHNAKTKPREEQYNSTYRVVSVLTVLHQDWLNGKEYKCKVSNKALGAPIEKTISKAKGQPREPQVCTLPPSRDELTKNQVSLSCAVKGFYPSDIAVEWESNGQPENNYKTTPPVLDSDGSFFLVSKLTVDKSRWQQGNVFSCSVMHEALHNHYTQKSLSLSP heavy 2: not shown light 1: not shown light 2: EVQLLESGGGLVQPGGSLRLSCAASGFTFTDYYMNWVRQAPGKGLEWLGFIGNKANAYTTEYSASVKGRFTISRDKSKNTLYLQMNSLRAEDTATYYCTRDRGLRFYFDYWGQGTTVTVSSASVAAPSVFIFPPSDEQLKSGTASVVCLLNNFYPREAKVQWKVDNALQSGNSQESVTEQDSKDSTYSLSSTLTLSKADYEKHKVYACEVTHQGLSSPVTKSFNRGEC									90	100	50	40	1130	26500	58100	56600	614	
Anti-FAP (4B9) huIgG1 P329GLALA (antibody, V domains shown) VH: EVQLLESGGGLVQPGGSLRLSCAASGFTFSSYAMSWVRQAPGKGLEWVSAIIGSGASTYYADSVKGRFTISRDNSKNTLYLQMNSLRAEDTAVYYCAKGWFGGFNYWGQGTLVTVSS VL: EIVLTQSPGTLSLSPGERATLSCRASQSVTSSYLAWYQQKPGQAPRLLINVGSRRATGIPDRFSGSGSGTDFTLTISRLEPEDFAVYYCQQGIMLPPTFGQGTKVEIK			181	195	191													
4-1BB (20H4.9)/FAP (4B9) P329GLALA IgG1 2+1 VH/VL (C-terminal) (bispecific antibody, Control format: FAP VH and VL fused to the C-termini of the heavy chains; also called 2+1 VH/VL anti-4-1BB (20H4.9)×anti-FAP (4B9) huIgG1 P329GLALA; 2+1 (C-terminal)) heavy 1: QVQLQQWGAGLLKPSETLSLTCAVYGGSFSGYYWSWIRQSPEKGLEWIGEINHGGYVTYNPSLESRVTISVDTSKNQFSLKLSSVTAADTAVYYCARDYGPGNYDWYFDLWGRGTLVTVSSASTKGPSVFPLAPSSKSTSGGTAALGCLVKDYFPEPVTVSWNSGALTSGVHTFPAVLQSSGLYSLSSVVTVPSSSLGTQTYICNVNHKPSNTKVDKKVEPKSCDKTHTCPPCPAPEAAGGPSVFLFPPKPKDTLMISRTPEVTCVVVDVSHEDPEVKFNWYVDGVEVHNAKTKPREEQYNSTYRVVSVLTVLHQDWLNGKEYKCKVSNKALGAPIEKTISKAKGQPREPQVCTLPPSRDELTKNQVSLSCAVKGFYPSDIAVEWESNGQPENNYKTTPPVLDSDGSFFLVSKLTVDKSRWQQGNVFSCSVMHEALHNHYTQKSLSLSPGGGGGSGGGGSGGGGSGGGGSEVQLLESGGGLVQPGGSLRLSCAASGFTFSSYAMSWVRQAPGKGLEWVSAIIGSGASTYYADSVKGRFTISRDNSKNTLYLQMNSLRAEDTAVYYCAKGWFGGFNYWGQGTLVTVSS heavy 2: not shown light: not shown	2500	21200	4360	95100	30900	8	28	3940										
